system: AncSZ; assay: phosphorylation enrichment, bacterial display (enrichment ratio); higher = better substrate or ligand; peptides without Tyr show the background
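Further: 11-residue human phosphosite peptides and single-mutation variants displayed on the E. coli surface, counted by deep sequencing, each peptide's frequency after selection divided by its frequency in the unselected input library; frequency after pTyr selection over input frequency; kinase dosed for 20-30% of maximal phosphorylation in three min.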

Compared with YSTSPYLLEAA [BRIP1_Y921], ISSLDYISKTK [VAV3_Y294] is lower in phosphorylation enrichment: 0.887 for the first, 0.703 for the second.

First: ATGMEYLASQK [FGFR2_Y616_R612T]
Second: GLGGGCGGASG [KRT8_Y54_Y54C]
The phosphorylation enrichment of the first is higher: 0.736 for the first, 0.582 for the second.

First: MGHVNYGAFIN [GLB1_Y485_R482H_YF]
Second: QNTGGYYDLYG [PTPN11_Y62_D61G]
The phosphorylation enrichment of the first is lower: 0.611 for the first, 1.32 for the second.

Compared with DSSIRYLQEIH [FGG_Y135_Y140H], AAVDEYLEHRR [FAM221A_Y17_Y20H] is higher in phosphorylation enrichment: 0.597 for the first, 0.96 for the second.

Going from KQLGEYKFQNA [ALB_Y425_E420K] to VDESLYKTHPQ [HK1_Y417_G414E], the phosphorylation enrichment rises from 0.507 to 0.904.

Compared with TFMKKYPKVFL [CNBD1_Y70_Q69K], CEDGTYSPEIS [PTDSS1_Y424] is lower in phosphorylation enrichment: 3.41 for the first, 1.2 for the second.

First: PELINYQQHNS [BTK_Y361_H362Q]
Second: ELANYYKLHHI [AK7_Y391]
The phosphorylation enrichment of the first is higher: 1.1 for the first, 0.647 for the second.

Compared with EVTRLYGSVCD [TC2N_Y154_K151T], PQIVKYRPDCI [LDHB_Y128_S129R] is lower in phosphorylation enrichment: 1.18 for the first, 0.89 for the second.

First: AIDVGYRLIDC [AKR1B1_Y40_H42L]
Second: YKRAVYCIIGR [NUP93_Y391]
The phosphorylation enrichment of the first is higher: 0.874 for the first, 0.746 for the second.

First: GQECKYPPTQD [METAP2_Y137_E136K]
Second: TFINKYQGKLF [HGD_Y249_V245F]
The phosphorylation enrichment of the first is higher: 0.86 for the first, 0.566 for the second.

First: KEGSAYGSQSV [NFKB2_Y868_D865G]
Second: SSSPTYLDLPF [GLI3_Y168_P169L]
The phosphorylation enrichment of the first is lower: 0.58 for the first, 0.659 for the second.

Compared with LQLLGHRPVFS [CHST6_Y358_Y358H_YF], CVAARYMDMKG [WFIKKN2_Y93_V96M] is lower in phosphorylation enrichment: 0.901 for the first, 0.755 for the second.

Going from LISVSYDDWDF [GRIN2A_Y281_YF] to NGSKAYAFVHF [PABPC5_Y147_G146A_YF], the phosphorylation enrichment falls from 3.36 to 0.97.

Going from MNKNAYHNVTA [ST3GAL6_Y306] to FTGNTYRVGDT [FN1_Y106_YF], the phosphorylation enrichment rises from 0.524 to 0.634.

First: IGCHAYGDQYR [IDH1_Y135_R132C]
Second: MPAVTYTLAMR [MEGF10_Y895_P897L]
The phosphorylation enrichment of the first is lower: 1.04 for the first, 1.08 for the second.

Compared with FPCSVYMPDEW [INSR_Y1011_V1012M], PEVRRHVLPLN [RPE65_Y368_Y368H] is higher in phosphorylation enrichment: 1.19 for the first, 1.35 for the second.

In the case of DGKYSYLKVGH [GRM3_Y480_G475D], the phosphorylation enrichment was 0.442.

target: EPHB1 (UniProt P54762); assay: as above
Sequence (P54762 whole entry, looked up): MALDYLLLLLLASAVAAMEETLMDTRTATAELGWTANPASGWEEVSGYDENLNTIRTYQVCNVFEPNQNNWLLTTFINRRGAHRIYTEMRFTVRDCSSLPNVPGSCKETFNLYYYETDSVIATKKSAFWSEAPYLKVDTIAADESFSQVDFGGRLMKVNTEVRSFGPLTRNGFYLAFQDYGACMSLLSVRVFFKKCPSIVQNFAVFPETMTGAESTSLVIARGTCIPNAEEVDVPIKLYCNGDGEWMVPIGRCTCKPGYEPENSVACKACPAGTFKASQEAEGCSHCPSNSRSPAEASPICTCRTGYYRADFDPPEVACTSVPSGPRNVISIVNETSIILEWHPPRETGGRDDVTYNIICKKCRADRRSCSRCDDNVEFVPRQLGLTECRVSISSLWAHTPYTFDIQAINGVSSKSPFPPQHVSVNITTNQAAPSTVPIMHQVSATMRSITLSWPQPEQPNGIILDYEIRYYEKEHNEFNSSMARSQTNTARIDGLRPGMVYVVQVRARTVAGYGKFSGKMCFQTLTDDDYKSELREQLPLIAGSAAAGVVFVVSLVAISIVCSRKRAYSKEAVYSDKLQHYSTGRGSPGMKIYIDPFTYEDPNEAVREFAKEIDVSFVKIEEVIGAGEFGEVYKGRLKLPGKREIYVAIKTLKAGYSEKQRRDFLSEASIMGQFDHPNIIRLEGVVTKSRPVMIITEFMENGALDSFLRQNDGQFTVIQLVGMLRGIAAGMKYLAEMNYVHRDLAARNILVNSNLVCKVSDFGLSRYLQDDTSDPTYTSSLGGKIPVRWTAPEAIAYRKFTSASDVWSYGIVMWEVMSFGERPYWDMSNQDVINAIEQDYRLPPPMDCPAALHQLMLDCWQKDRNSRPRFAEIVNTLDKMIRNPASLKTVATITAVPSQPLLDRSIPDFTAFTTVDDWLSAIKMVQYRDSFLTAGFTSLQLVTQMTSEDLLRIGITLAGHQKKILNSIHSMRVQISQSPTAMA

First: YSTSPYLLEAA [BRIP1_Y921]
Second: ISSLDYISKTK [VAV3_Y294]
The phosphorylation enrichment of the first is lower: 0.544 for the first, 0.626 for the second.

First: ATGMEYLASQK [FGFR2_Y616_R612T]
Second: GLGGGCGGASG [KRT8_Y54_Y54C]
The phosphorylation enrichment of the first is higher: 0.479 for the first, 0.465 for the second.

Compared with MGHVNYGAFIN [GLB1_Y485_R482H_YF], QNTGGYYDLYG [PTPN11_Y62_D61G] is higher in phosphorylation enrichment: 0.565 for the first, 1.85 for the second.

First: DSSIRYLQEIH [FGG_Y135_Y140H]
Second: AAVDEYLEHRR [FAM221A_Y17_Y20H]
The phosphorylation enrichment of the first is lower: 0.378 for the first, 0.562 for the second.

Going from KQLGEYKFQNA [ALB_Y425_E420K] to VDESLYKTHPQ [HK1_Y417_G414E], the phosphorylation enrichment rises from 0.348 to 0.513.

First: TFMKKYPKVFL [CNBD1_Y70_Q69K]
Second: CEDGTYSPEIS [PTDSS1_Y424]
The phosphorylation enrichment of the first is lower: 0.508 for the first, 0.649 for the second.

Compared with PELINYQQHNS [BTK_Y361_H362Q], ELANYYKLHHI [AK7_Y391] is higher in phosphorylation enrichment: 0.79 for the first, 13.7 for the second.

Going from EVTRLYGSVCD [TC2N_Y154_K151T] to PQIVKYRPDCI [LDHB_Y128_S129R], the phosphorylation enrichment falls from 0.708 to 0.627.

First: AIDVGYRLIDC [AKR1B1_Y40_H42L]
Second: YKRAVYCIIGR [NUP93_Y391]
The phosphorylation enrichment of the first is lower: 0.456 for the first, 0.506 for the second.

Compared with GQECKYPPTQD [METAP2_Y137_E136K], TFINKYQGKLF [HGD_Y249_V245F] is lower in phosphorylation enrichment: 0.521 for the first, 0.391 for the second.

First: KEGSAYGSQSV [NFKB2_Y868_D865G]
Second: SSSPTYLDLPF [GLI3_Y168_P169L]
The phosphorylation enrichment of the first is lower: 0.461 for the first, 8.94 for the second.

First: LQLLGHRPVFS [CHST6_Y358_Y358H_YF]
Second: CVAARYMDMKG [WFIKKN2_Y93_V96M]
The phosphorylation enrichment of the first is higher: 0.847 for the first, 0.394 for the second.

First: LISVSYDDWDF [GRIN2A_Y281_YF]
Second: NGSKAYAFVHF [PABPC5_Y147_G146A_YF]
The phosphorylation enrichment of the first is higher: 1.46 for the first, 0.586 for the second.

Compared with MNKNAYHNVTA [ST3GAL6_Y306], FTGNTYRVGDT [FN1_Y106_YF] is lower in phosphorylation enrichment: 0.686 for the first, 0.382 for the second.

Going from IGCHAYGDQYR [IDH1_Y135_R132C] to MPAVTYTLAMR [MEGF10_Y895_P897L], the phosphorylation enrichment falls from 0.593 to 0.516.

First: FPCSVYMPDEW [INSR_Y1011_V1012M]
Second: PEVRRHVLPLN [RPE65_Y368_Y368H]
The phosphorylation enrichment of the first is lower: 0.6 for the first, 0.849 for the second.

For DGKYSYLKVGH [GRM3_Y480_G475D], the phosphorylation enrichment was 0.303.

target: EPHB2 (UniProt P29323); assay: as above
Sequence (P29323 whole entry, looked up): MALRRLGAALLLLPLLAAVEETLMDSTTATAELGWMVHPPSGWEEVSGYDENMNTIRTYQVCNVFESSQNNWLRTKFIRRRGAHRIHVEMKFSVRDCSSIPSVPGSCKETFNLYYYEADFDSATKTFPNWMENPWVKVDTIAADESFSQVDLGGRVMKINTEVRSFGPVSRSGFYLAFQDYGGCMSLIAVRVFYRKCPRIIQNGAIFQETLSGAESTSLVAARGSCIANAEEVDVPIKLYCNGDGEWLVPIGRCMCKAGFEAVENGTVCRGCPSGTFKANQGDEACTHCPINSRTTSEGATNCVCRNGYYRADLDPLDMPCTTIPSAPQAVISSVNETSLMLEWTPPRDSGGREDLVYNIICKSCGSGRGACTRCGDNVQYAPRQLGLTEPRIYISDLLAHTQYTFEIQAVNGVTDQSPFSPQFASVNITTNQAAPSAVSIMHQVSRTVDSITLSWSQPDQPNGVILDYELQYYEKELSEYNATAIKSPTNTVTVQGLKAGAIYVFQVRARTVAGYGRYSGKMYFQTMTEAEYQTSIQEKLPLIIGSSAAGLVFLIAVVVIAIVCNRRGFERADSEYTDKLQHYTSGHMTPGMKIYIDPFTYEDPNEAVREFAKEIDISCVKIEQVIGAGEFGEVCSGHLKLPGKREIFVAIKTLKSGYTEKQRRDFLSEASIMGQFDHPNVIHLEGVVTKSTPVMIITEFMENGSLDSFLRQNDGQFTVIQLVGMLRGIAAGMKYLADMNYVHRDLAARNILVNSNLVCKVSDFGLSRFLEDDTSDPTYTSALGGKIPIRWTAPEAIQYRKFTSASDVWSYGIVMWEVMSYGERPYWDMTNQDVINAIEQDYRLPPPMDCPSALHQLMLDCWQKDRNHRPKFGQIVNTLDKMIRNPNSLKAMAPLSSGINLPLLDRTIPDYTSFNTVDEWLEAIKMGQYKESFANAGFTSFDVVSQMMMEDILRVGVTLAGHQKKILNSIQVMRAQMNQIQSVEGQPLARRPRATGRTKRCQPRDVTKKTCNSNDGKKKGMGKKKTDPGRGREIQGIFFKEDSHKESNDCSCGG

Going from YSTSPYLLEAA [BRIP1_Y921] to ISSLDYISKTK [VAV3_Y294], the phosphorylation enrichment falls from 0.518 to 0.463.

Compared with ATGMEYLASQK [FGFR2_Y616_R612T], GLGGGCGGASG [KRT8_Y54_Y54C] is higher in phosphorylation enrichment: 0.495 for the first, 0.499 for the second.

First: MGHVNYGAFIN [GLB1_Y485_R482H_YF]
Second: QNTGGYYDLYG [PTPN11_Y62_D61G]
The phosphorylation enrichment of the first is lower: 0.615 for the first, 2.78 for the second.

Going from DSSIRYLQEIH [FGG_Y135_Y140H] to AAVDEYLEHRR [FAM221A_Y17_Y20H], the phosphorylation enrichment rises from 0.402 to 0.581.

Compared with KQLGEYKFQNA [ALB_Y425_E420K], VDESLYKTHPQ [HK1_Y417_G414E] is higher in phosphorylation enrichment: 0.386 for the first, 0.706 for the second.

First: TFMKKYPKVFL [CNBD1_Y70_Q69K]
Second: CEDGTYSPEIS [PTDSS1_Y424]
The phosphorylation enrichment of the first is lower: 0.419 for the first, 0.578 for the second.

Going from PELINYQQHNS [BTK_Y361_H362Q] to ELANYYKLHHI [AK7_Y391], the phosphorylation enrichment rises from 0.821 to 12.3.

First: EVTRLYGSVCD [TC2N_Y154_K151T]
Second: PQIVKYRPDCI [LDHB_Y128_S129R]
The phosphorylation enrichment of the first is higher: 0.586 for the first, 0.131 for the second.

Going from AIDVGYRLIDC [AKR1B1_Y40_H42L] to YKRAVYCIIGR [NUP93_Y391], the phosphorylation enrichment rises from 0.45 to 0.464.

First: GQECKYPPTQD [METAP2_Y137_E136K]
Second: TFINKYQGKLF [HGD_Y249_V245F]
The phosphorylation enrichment of the first is higher: 0.507 for the first, 0.346 for the second.

Compared with KEGSAYGSQSV [NFKB2_Y868_D865G], SSSPTYLDLPF [GLI3_Y168_P169L] is higher in phosphorylation enrichment: 0.384 for the first, 2.73 for the second.

First: LQLLGHRPVFS [CHST6_Y358_Y358H_YF]
Second: CVAARYMDMKG [WFIKKN2_Y93_V96M]
The phosphorylation enrichment of the first is higher: 0.783 for the first, 0.428 for the second.

Going from LISVSYDDWDF [GRIN2A_Y281_YF] to NGSKAYAFVHF [PABPC5_Y147_G146A_YF], the phosphorylation enrichment falls from 1 to 0.606.

Compared with MNKNAYHNVTA [ST3GAL6_Y306], FTGNTYRVGDT [FN1_Y106_YF] is higher in phosphorylation enrichment: 0.341 for the first, 0.464 for the second.

First: IGCHAYGDQYR [IDH1_Y135_R132C]
Second: MPAVTYTLAMR [MEGF10_Y895_P897L]
The phosphorylation enrichment of the first is lower: 0.556 for the first, 0.588 for the second.

First: FPCSVYMPDEW [INSR_Y1011_V1012M]
Second: PEVRRHVLPLN [RPE65_Y368_Y368H]
The phosphorylation enrichment of the first is lower: 0.644 for the first, 0.886 for the second.

With DGKYSYLKVGH [GRM3_Y480_G475D] the phosphorylation enrichment was 0.297.

target: FGFR1 (UniProt P11362); assay: as above
Sequence (P11362 whole entry, looked up): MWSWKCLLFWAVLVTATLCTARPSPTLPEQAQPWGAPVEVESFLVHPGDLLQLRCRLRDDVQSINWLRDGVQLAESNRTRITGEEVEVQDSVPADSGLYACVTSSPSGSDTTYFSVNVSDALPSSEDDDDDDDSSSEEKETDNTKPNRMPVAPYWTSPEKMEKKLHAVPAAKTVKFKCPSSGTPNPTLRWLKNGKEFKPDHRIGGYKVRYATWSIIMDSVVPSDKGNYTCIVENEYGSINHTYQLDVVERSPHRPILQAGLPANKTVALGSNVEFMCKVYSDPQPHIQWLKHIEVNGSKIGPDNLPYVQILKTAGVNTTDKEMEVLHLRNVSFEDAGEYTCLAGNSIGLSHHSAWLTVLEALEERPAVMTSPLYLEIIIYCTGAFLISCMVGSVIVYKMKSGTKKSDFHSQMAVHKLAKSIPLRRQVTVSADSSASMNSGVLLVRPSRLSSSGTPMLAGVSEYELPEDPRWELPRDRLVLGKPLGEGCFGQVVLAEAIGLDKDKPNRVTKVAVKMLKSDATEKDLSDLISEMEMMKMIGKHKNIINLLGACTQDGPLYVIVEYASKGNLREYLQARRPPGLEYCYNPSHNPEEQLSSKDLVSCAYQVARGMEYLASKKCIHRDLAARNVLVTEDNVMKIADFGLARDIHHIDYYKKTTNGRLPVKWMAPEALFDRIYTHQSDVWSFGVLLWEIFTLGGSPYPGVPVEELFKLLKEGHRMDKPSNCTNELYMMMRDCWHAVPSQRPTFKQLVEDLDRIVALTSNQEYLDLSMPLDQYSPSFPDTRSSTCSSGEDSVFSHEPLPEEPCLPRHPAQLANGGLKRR

Compared with YSTSPYLLEAA [BRIP1_Y921], ISSLDYISKTK [VAV3_Y294] is lower in phosphorylation enrichment: 0.551 for the first, 0.505 for the second.

First: ATGMEYLASQK [FGFR2_Y616_R612T]
Second: GLGGGCGGASG [KRT8_Y54_Y54C]
The phosphorylation enrichment of the first is lower: 0.464 for the first, 0.494 for the second.

Compared with MGHVNYGAFIN [GLB1_Y485_R482H_YF], QNTGGYYDLYG [PTPN11_Y62_D61G] is higher in phosphorylation enrichment: 0.449 for the first, 13.8 for the second.

First: DSSIRYLQEIH [FGG_Y135_Y140H]
Second: AAVDEYLEHRR [FAM221A_Y17_Y20H]
The phosphorylation enrichment of the first is lower: 0.384 for the first, 0.467 for the second.

Compared with KQLGEYKFQNA [ALB_Y425_E420K], VDESLYKTHPQ [HK1_Y417_G414E] is higher in phosphorylation enrichment: 0.468 for the first, 0.644 for the second.

First: TFMKKYPKVFL [CNBD1_Y70_Q69K]
Second: CEDGTYSPEIS [PTDSS1_Y424]
The phosphorylation enrichment of the first is lower: 0.485 for the first, 0.5 for the second.

Compared with PELINYQQHNS [BTK_Y361_H362Q], ELANYYKLHHI [AK7_Y391] is higher in phosphorylation enrichment: 0.763 for the first, 6.91 for the second.

Compared with EVTRLYGSVCD [TC2N_Y154_K151T], PQIVKYRPDCI [LDHB_Y128_S129R] is lower in phosphorylation enrichment: 0.557 for the first, 0.302 for the second.

Compared with AIDVGYRLIDC [AKR1B1_Y40_H42L], YKRAVYCIIGR [NUP93_Y391] is lower in phosphorylation enrichment: 0.514 for the first, 0.429 for the second.

Compared with GQECKYPPTQD [METAP2_Y137_E136K], TFINKYQGKLF [HGD_Y249_V245F] is lower in phosphorylation enrichment: 0.569 for the first, 0.387 for the second.

Compared with KEGSAYGSQSV [NFKB2_Y868_D865G], SSSPTYLDLPF [GLI3_Y168_P169L] is higher in phosphorylation enrichment: 0.312 for the first, 5.82 for the second.

Compared with LQLLGHRPVFS [CHST6_Y358_Y358H_YF], CVAARYMDMKG [WFIKKN2_Y93_V96M] is lower in phosphorylation enrichment: 0.657 for the first, 0.36 for the second.

Going from LISVSYDDWDF [GRIN2A_Y281_YF] to NGSKAYAFVHF [PABPC5_Y147_G146A_YF], the phosphorylation enrichment falls from 1.08 to 0.649.

Compared with MNKNAYHNVTA [ST3GAL6_Y306], FTGNTYRVGDT [FN1_Y106_YF] is lower in phosphorylation enrichment: 0.499 for the first, 0.372 for the second.

Going from IGCHAYGDQYR [IDH1_Y135_R132C] to MPAVTYTLAMR [MEGF10_Y895_P897L], the phosphorylation enrichment falls from 0.634 to 0.453.

Compared with FPCSVYMPDEW [INSR_Y1011_V1012M], PEVRRHVLPLN [RPE65_Y368_Y368H] is higher in phosphorylation enrichment: 0.658 for the first, 0.707 for the second.

In the case of DGKYSYLKVGH [GRM3_Y480_G475D], the phosphorylation enrichment was 0.38.
